Test results: patent US12203932B2, “Genetically encoded biosensors” (Howard Hughes Medical Institute, priority 2011, dated 2025)

What was measured:
[1] = Thermal stability by circular dichroism (CD) of MBPs and MBP-cpGFP sensors; assay type: physicochemical; details: CD signal vs temperature
Method: Thermal stability of PfMBP171-cpGFP.L2FE was measured using circular-dichroism (CD) and compared to the original EcMBP and PfMBP binding proteins, along with cpGFP. Following the changes by means of CD allowed determination of whether different transitions happened in alpha, beta, or both kinds of structures.
Given that cpGFP is a beta barrel, strong transitions in the beta signal alone were associated with changes in this kind of structure. In the same way, transitions in both kinds of signals were associated with the binding protein structure. […] Also, the addition of maltose to EcMBP stabilized the protein by about 10° C.

[2] = Fluorescence response and titration of soluble EcYbeJ253-cpGFP sensors with glutamate; assay type: binding; details: soluble protein; read-out: Kd (affinity) for glutamate
Method: Several thousand variants were screened in semi-high-throughput fashion, measuring fluorescence intensity of clarified cell lysate in the absence and presence of 10 mM glutamate.

| Kd [2] [nM] | Molecule | denaturation temperature / Tm of binding protein (component) [1] [°C] |
| --- | --- | --- |
|  | PfMBP: Pyrococcus furiosus maltotriose binding protein; SEQ ID NO:106 (protein, listed as Pyrococcus furiosus) MRRATYAFALLAILVLGVVASGCIGGGTTTPTQTSPATQPTTTQTPTQTETQAVECGSGKVVIWHAMQPNELEVFQSLAEEYMALCPEVEIVFEQKPNLEDALKAAIPTGQGPDLFIWAHDWIGKFAEAGLLEPIDEYVTEDLLNEFAPMAQDAMQYKGHYYALPFAAETVAIIYNKEMVSEPPKTFDEMKAIMEKYYDPANEKYGIAWPINAYFISAIAQAFGGYYFDDKTEQPGLDKPETIEGFKFFFTEIWPYMAPTGDYNTQQSIFLEGRAPMMVNGPWSINDVKKAGINFGVVPLPPIIKDGKEYWPRPYGGVKLIYFAAGIKNKDAAWKFAKWLTTSEESIKTLALELGYIPVLTKVLDDPEIKNDPVIYGFGQAVQHAYLMPKSPKMSAVWGGVDGAINEILQDPQNADIEGILKKYQQEILNNMQG | ≥ 80 |
| ~1000 | wild-type YbeJ: E. coli glutamate-binding protein; SEQ ID NO:107 (protein, listed as Escherichia coli) MNAKIIASLAFTSMFSLSTLLNPAYAEEQEKALNFGIISTESQQNLKPQWTPFLQDMEKKLGVKVNAFFAPDYAGIIQGMRFNKVDIAWYGNLSAMEAVDRANGQVFAQTVAADGSPGYWSVLIVNKDSPINNLNDLLAKRKDLTFGNGDPNSTSGFLVPGYYVFAKNNISASDFKRTVNAGHETNALAVANKQVDVATNNTENLDKLKTSAPEKLKELKVIWKSPLIPGDPIVWRKNLSETTKDKIYDFFMNYGKTPEEKAVLERLGWAPFRASSDLQLVPIRQLALFKEMQSVKDNKGLNEQDKLAKTTAIQAQLDDLDRLNNALSAMSSVSKAVQ |  |
